The labels stand for the following.
B1: Ab384 (antibody, V domains shown)
VH: EVQLVQSGAEVKKPGSSVKLSCKASGYTFTSYWMHWVRQAPGQGLEWIGYIKPSSGYTKYNQKFKDKATLTADKSTSTAYMELSSLRSEDTAVYYCARDYYGSSSWFAYWGQGTLVTVSS
VL: EIVMTQSPAFMSVTVGEKVTITCKASQNVGTNVAWYQQKPDQSPKALIYSASYRYSGVPSRFSGSGSGTDFTLTISSLEAEDAATYYCQQYNSYPYMYTFGQGTKLEIK
notes: humanized
B2: Ab353 (antibody, V domains shown)
VH: EVQLVQSGAEVKKPGTSVKLSCKASGYTFTSSAMQWVKQAPGQGLEWIGYIKPSSGYTKYNQKFKDKATLTADKSTSTAYMELSSLRSEDTAVYYCARDYYGSSSWFAYWGQGTLVTVSS
VL: EIVMTQSPAFLSVTPGEKVTITCKASQNVGTNVAWYQQKPDQAPKALIYSASYRYSGVPSRFSGSGSGTDFTLTISSLEAEDAATYYCQQYNSYPYMYTFGQGTKLEIK
notes: humanized
B3: Ab366 (antibody, V domains shown)
VH: EVQLVQSGAEVKKPGTSVKLSCKASGYTFTSYWMHWVRQARGQRLEWIGYIKPSSGYTKYAQKFQERVTLTADKSTSTAYMELSSLRSEDTAVYYCARDYYGSSSWFAYWGQGTLVTVSS
VL: DIVMTQSQAFMSVTVGEKVTITCKASQNVGTNVAWYQQKPDQAPKALIYSASYRYSGVPSRFSGSGSGTDFTLTISSLEAEDAATYYCQQYNSYPYMYTFGQGTKLEIK
notes: humanized
B4: Ab354 (antibody, V domains shown)
VH: EVQLVQSGAEVKKPGTSVKLSCKASGYTFTSYWMHWVRQARGQRLEWIGYIKPSSGYTKYAQKFQERVTLTADKSTSTAYMELSSLRSEDTAVYYCARDYYGSSSWFAYWGQGTLVTVSS
VL: EIVMTQSPAFLSVTPGEKVTITCKASQNVGTNVAWYQQKPDQAPKALIYSASYRYSGVPSRFSGSGSGTDFTLTISSLEAEDAATYYCQQYNSYPYMYTFGQGTKLEIK
notes: humanized
B5: Ab369 (antibody, V domains shown)
VH: EVQLVQSGAEVAKPGASVKLSCKASGYTFTSYWMHWVRQAPGQGLEWIGYIKPSSGYTKYNQKFKDKATLTADKSTSTAYMELRSLRSDDTAVYYCARDYYGSSSWFAYWGQGTLVTVSS
VL: DIVMTQSQAFMSVTVGEKVTITCKASQNVGTNVAWYQQKPDQAPKALIYSASYRYSGVPSRFSGSGSGTDFTLTISSLEAEDAATYYCQQYNSYPYMYTFGQGTKLEIK
notes: humanized
B6: Ab357 (antibody, V domains shown)
VH: EVQLVQSGAEVAKPGASVKLSCKASGYTFTSYWMHWVRQAPGQGLEWIGYIKPSSGYTKYNQKFKDKATLTADKSTSTAYMELRSLRSDDTAVYYCARDYYGSSSWFAYWGQGTLVTVSS
VL: EIVMTQSPAFLSVTPGEKVTITCKASQNVGTNVAWYQQKPDQAPKALIYSASYRYSGVPSRFSGSGSGTDFTLTISSLEAEDAATYYCQQYNSYPYMYTFGQGTKLEIK
notes: humanized
B7: Ab359 (antibody, V domains shown)
VH: QVQLVQSGAEVAKPGSSVKLSCKASGYTFTSYWMHWVKQAPGQGLEWIGYIKPSSGYTKYNQKFKDKATLTADKSTSTAYMELSSLRSEDTAVYYCARDYYGSSSWFAYWGQGTLVTVSS
VL: EIVMTQSPAFLSVTPGEKVTITCKASQNVGTNVAWYQQKPDQAPKALIYSASYRYSGVPSRFSGSGSGTDFTLTISSLEAEDAATYYCQQYNSYPYMYTFGQGTKLEIK
notes: humanized
B8: Ab361 (antibody, V domains shown)
VH: EVQLVQSGAEVKKPGSSVKVSCKASGYTFSSYWMHWVRQAPGQGLEWIGYIKPSSGYTKYNQKFKDKATLTADKSTSTAYMELSSLRSEDTAVYYCARDYYGSSSWFAYWGQGTLVTVSS
VL: EIVMTQSPAFLSVTPGEKVTITCKASQNVGTNVAWYQQKPDQAPKALIYSASYRYSGVPSRFSGSGSGTDFTLTISSLEAEDAATYYCQQYNSYPYMYTFGQGTKLEIK
notes: humanized
B9: Ab370 (antibody, V domains shown)
VH: EVQLVQSGAEVKKPGASVKLSCKASGYTFTSYWMHWVRQAPGQGLEWIGYIKPSSGYTKYAQKLQGRVTLTADKSTSTAYMELRSLRSDDTAVYYCARDYYGSSSWFAYWGQGTLVTVSS
VL: DIVMTQSQAFMSVTVGEKVTITCKASQNVGTNVAWYQQKPDQAPKALIYSASYRYSGVPSRFSGSGSGTDFTLTISSLEAEDAATYYCQQYNSYPYMYTFGQGTKLEIK
notes: humanized
B10: Ab363 (antibody, V domains shown)
VH: QVQLVQSGAEVAKPGTSVKLSCKASGYTFTSYWMHWVKQAPGQGLEWIGYIKPSSGYTKYNQKFKDKVTLTADKSTSTAYMELSSLRSEDTAVYYCARDYYGSSSWFAYWGQGTLVTVSS
VL: DIVMTQSQAFMSVTVGEKVTITCKASQNVGTNVAWYQQKPDQAPKALIYSASYRYSGVPSRFSGSGSGTDFTLTISSLEAEDAATYYCQQYNSYPYMYTFGQGTKLEIK
notes: humanized
B11: Ab364 (antibody, V domains shown)
VH: EVQLVQSGPEVKKPGTSVKLSCKASGYTFTSYWMHWVRQARGQRLEWIGYIKPSSGYTKYNQKFKDRATLTADKSTSTAYMELSSLRSEDTAVYYCARDYYGSSSWFAYWGQGTLVTVSS
VL: DIVMTQSQAFMSVTVGEKVTITCKASQNVGTNVAWYQQKPDQAPKALIYSASYRYSGVPSRFSGSGSGTDFTLTISSLEAEDAATYYCQQYNSYPYMYTFGQGTKLEIK
notes: humanized
B12: Ab372 (antibody, V domains shown)
VH: EVQLVQSGAEVKKPGSSVKLSCKASGYTFTSYWMHWVRQAPGQGLEWIGYIKPSSGYTKYNQKFKDKATLTADKSTSTAYMELSSLRSEDTAVYYCARDYYGSSSWFAYWGQGTLVTVSS
VL: DIVMTQSQAFMSVTVGEKVTITCKASQNVGTNVAWYQQKPDQAPKALIYSASYRYSGVPSRFSGSGSGTDFTLTISSLEAEDAATYYCQQYNSYPYMYTFGQGTKLEIK
notes: humanized
B13: Ab365 (antibody, V domains shown)
VH: EVQLVQSGAEVKKPGTSVKLSCKASGYTFTSSAMQWVKQAPGQGLEWIGYIKPSSGYTKYNQKFKDKATLTADKSTSTAYMELSSLRSEDTAVYYCARDYYGSSSWFAYWGQGTLVTVSS
VL: DIVMTQSQAFMSVTVGEKVTITCKASQNVGTNVAWYQQKPDQAPKALIYSASYRYSGVPSRFSGSGSGTDFTLTISSLEAEDAATYYCQQYNSYPYMYTFGQGTKLEIK
notes: humanized
B14: Ab351 (antibody, V domains shown)
VH: QVQLVQSGAEVAKPGTSVKLSCKASGYTFTSYWMHWVKQAPGQGLEWIGYIKPSSGYTKYNQKFKDKVTLTADKSTSTAYMELSSLRSEDTAVYYCARDYYGSSSWFAYWGQGTLVTVSS
VL: EIVMTQSPAFLSVTPGEKVTITCKASQNVGTNVAWYQQKPDQAPKALIYSASYRYSGVPSRFSGSGSGTDFTLTISSLEAEDAATYYCQQYNSYPYMYTFGQGTKLEIK
notes: humanized
B15: Ab360 (antibody, V domains shown)
VH: EVQLVQSGAEVKKPGSSVKLSCKASGYTFTSYWMHWVRQAPGQGLEWIGYIKPSSGYTKYNQKFKDKATLTADKSTSTAYMELSSLRSEDTAVYYCARDYYGSSSWFAYWGQGTLVTVSS
VL: EIVMTQSPAFLSVTPGEKVTITCKASQNVGTNVAWYQQKPDQAPKALIYSASYRYSGVPSRFSGSGSGTDFTLTISSLEAEDAATYYCQQYNSYPYMYTFGQGTKLEIK
notes: humanized
B16: Ab368 (antibody, V domains shown)
VH: EVQLVQSGAEVKKPGASVKLSCKASGYTFTSYWMHWVRQAPGQGLEWIGYIKPSSGYTKYNQKFKDKATLTADKSTSTAYMELRSLRSDDTAVYYCARDYYGSSSWFAYWGQGTLVTVSS
VL: DIVMTQSQAFMSVTVGEKVTITCKASQNVGTNVAWYQQKPDQAPKALIYSASYRYSGVPSRFSGSGSGTDFTLTISSLEAEDAATYYCQQYNSYPYMYTFGQGTKLEIK
notes: humanized
B17: Ab367 (antibody, V domains shown)
VH: QVQLVQSGAEVAKPGASVKLSCKASGYTFTSYWMHWVKQAPGQGLEWIGYIKPSSGYTKYNQKFKDKATLTADKSTSTAYMELRSLRSDDTAVYYCARDYYGSSSWFAYWGQGTLVTVSS
VL: DIVMTQSQAFMSVTVGEKVTITCKASQNVGTNVAWYQQKPDQAPKALIYSASYRYSGVPSRFSGSGSGTDFTLTISSLEAEDAATYYCQQYNSYPYMYTFGQGTKLEIK
notes: humanized
B18: Ab371 (antibody, V domains shown)
VH: QVQLVQSGAEVAKPGSSVKLSCKASGYTFTSYWMHWVKQAPGQGLEWIGYIKPSSGYTKYNQKFKDKATLTADKSTSTAYMELSSLRSEDTAVYYCARDYYGSSSWFAYWGQGTLVTVSS
VL: DIVMTQSQAFMSVTVGEKVTITCKASQNVGTNVAWYQQKPDQAPKALIYSASYRYSGVPSRFSGSGSGTDFTLTISSLEAEDAATYYCQQYNSYPYMYTFGQGTKLEIK
notes: humanized
B19: Ab358 (antibody, V domains shown)
VH: EVQLVQSGAEVKKPGASVKLSCKASGYTFTSYWMHWVRQAPGQGLEWIGYIKPSSGYTKYAQKLQGRVTLTADKSTSTAYMELRSLRSDDTAVYYCARDYYGSSSWFAYWGQGTLVTVSS
VL: EIVMTQSPAFLSVTPGEKVTITCKASQNVGTNVAWYQQKPDQAPKALIYSASYRYSGVPSRFSGSGSGTDFTLTISSLEAEDAATYYCQQYNSYPYMYTFGQGTKLEIK
notes: humanized
B20: Ab362 (antibody, V domains shown)
VH: EVQLVQSGAEVKKPGSSVKLSCKASGYTFSSYWMHWVKQAPGQGLEWIGYIKPSSGYTKYAQKFQGRVTLTADKSTSTAYMELSSLRSEDTAVYYCARDYYGSSSWFAYWGQGTLVTVSS
VL: EIVMTQSPAFLSVTPGEKVTITCKASQNVGTNVAWYQQKPDQAPKALIYSASYRYSGVPSRFSGSGSGTDFTLTISSLEAEDAATYYCQQYNSYPYMYTFGQGTKLEIK
notes: humanized
B21: Ab356 (antibody, V domains shown)
VH: EVQLVQSGAEVKKPGASVKLSCKASGYTFTSYWMHWVRQAPGQGLEWIGYIKPSSGYTKYNQKFKDKATLTADKSTSTAYMELRSLRSDDTAVYYCARDYYGSSSWFAYWGQGTLVTVSS
VL: EIVMTQSPAFLSVTPGEKVTITCKASQNVGTNVAWYQQKPDQAPKALIYSASYRYSGVPSRFSGSGSGTDFTLTISSLEAEDAATYYCQQYNSYPYMYTFGQGTKLEIK
notes: humanized

T1 sequence (Q9UM73 19-1038 limits assumed): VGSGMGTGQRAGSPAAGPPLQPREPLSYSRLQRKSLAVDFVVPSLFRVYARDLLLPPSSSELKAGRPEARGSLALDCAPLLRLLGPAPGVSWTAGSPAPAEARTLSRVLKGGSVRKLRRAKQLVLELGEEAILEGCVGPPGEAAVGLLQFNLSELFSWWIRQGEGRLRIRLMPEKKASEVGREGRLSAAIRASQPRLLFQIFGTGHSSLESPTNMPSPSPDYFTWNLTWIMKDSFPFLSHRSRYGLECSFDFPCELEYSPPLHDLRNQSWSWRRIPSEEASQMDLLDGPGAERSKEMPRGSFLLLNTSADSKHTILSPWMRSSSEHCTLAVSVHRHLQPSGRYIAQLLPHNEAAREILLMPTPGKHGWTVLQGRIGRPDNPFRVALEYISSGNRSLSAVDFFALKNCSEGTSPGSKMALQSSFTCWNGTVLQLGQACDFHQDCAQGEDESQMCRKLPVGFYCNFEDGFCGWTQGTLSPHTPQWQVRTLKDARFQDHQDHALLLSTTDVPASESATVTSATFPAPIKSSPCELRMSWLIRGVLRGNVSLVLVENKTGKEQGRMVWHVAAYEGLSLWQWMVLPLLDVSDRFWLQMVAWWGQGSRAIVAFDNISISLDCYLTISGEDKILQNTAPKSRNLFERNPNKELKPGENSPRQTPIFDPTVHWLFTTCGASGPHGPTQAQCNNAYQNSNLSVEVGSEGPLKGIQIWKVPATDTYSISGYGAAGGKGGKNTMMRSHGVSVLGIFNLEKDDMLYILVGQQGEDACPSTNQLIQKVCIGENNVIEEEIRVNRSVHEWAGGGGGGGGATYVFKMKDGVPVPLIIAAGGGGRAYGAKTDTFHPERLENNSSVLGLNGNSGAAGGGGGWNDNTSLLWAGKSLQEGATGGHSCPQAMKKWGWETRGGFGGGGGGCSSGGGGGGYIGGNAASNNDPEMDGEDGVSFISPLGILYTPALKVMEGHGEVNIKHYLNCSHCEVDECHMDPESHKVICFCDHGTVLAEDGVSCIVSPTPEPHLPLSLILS

This experiment addresses T1, purified ALK protein (BLitz, Table 20) (Homo sapiens (Human), UniProt Q9UM73 19-1038, limits assumed).
T1 construct: also called purified ALK proteins
As to the kind of experiment: BLI (BLitz), mAb on Protein A tip, purified ALK in solution. On the procedure:
Kinetic measurements of the monovalent affinity of the 96 humanized ALK antibody variants (Ab351-Ab446) were collected. Affinity ranking was performed using a BLitz® System (ForteBio, Menlo Park, Calif.). Humanized anti-ALK antibodies were immobilized at 0.5 mg/mL using Protein A tips. Once baseline stability was ensured, purified ALK proteins at 70 μg/mL were added. The resulting kinetic data were fit to a single binding site equation, from which the quoted monovalent KD values were derived.
For B1, the Kd was determined as 201 nM.
The result for B2 reads 384 nM; that for B3, 219 nM; that for B4, 133 nM.
In the case of B5, binding was put at a Kd of 210 nM.
Consider B6, for which the Kd was 147 nM.
The result for B7 reads 100 nM.
B8: the Kd was 153 nM.
B9: the affinity, expressed as Kd, was 2530 nM.
On to B10, for which the Kd amounted to 119 nM.
B11 displayed a Kd of 128 nM.
The result for B12 reads 188 nM; that for B13, 1490 nM.
In the case of B14 it was 120 nM.
The result for B15 reads 137 nM; that for B16, 198 nM; that for B17, 114 nM.
For the molecule B18, binding was characterised by a dissociation constant (Kd) of 130 nM.
B19 gave a Kd of 118 nM.
The result for B20 reads 149 nM; that for B21, 128 nM.

Broadly, the Kd is a measure of binding affinity in units of concentration. Low readings indicate tighter binding, high ones weaker binding.

(Values after patent US20200157236A1 (CELLDEX THERAPEUTICS, published 2020).)
